From patent US20220162334A1 (SHANGHAI HENLIUS BIOTECH, published 2022)

T1: human CD73 on CD73-expressing human tumor cells (MDA-MB-231, NCI-H292) (human, UniProt P21589 27-549)
T1 construct: whole, on cells; The cell line of each result is named under assay or readout; also called cell surface CD73; surface CD73
T1 sequence (looked up): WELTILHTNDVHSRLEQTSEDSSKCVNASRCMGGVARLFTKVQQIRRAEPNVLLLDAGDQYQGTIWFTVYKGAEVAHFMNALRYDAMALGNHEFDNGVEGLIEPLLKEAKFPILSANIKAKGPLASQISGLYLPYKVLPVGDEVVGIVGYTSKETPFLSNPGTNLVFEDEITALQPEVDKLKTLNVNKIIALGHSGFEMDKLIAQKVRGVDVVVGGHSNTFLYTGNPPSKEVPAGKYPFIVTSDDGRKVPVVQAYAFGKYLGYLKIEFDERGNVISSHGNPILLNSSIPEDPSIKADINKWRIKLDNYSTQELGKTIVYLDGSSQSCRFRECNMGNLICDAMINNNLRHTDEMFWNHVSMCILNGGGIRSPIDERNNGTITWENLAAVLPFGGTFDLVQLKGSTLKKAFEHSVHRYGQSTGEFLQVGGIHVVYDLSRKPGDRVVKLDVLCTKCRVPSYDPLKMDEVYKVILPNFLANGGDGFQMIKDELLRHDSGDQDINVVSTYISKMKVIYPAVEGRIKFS


What was measured:
[1] = molecular target: T1, human CD73 on CD73-expressing human …; assay: flow cytometry on MDA-MB-231 cells, biotin-labeled antibody, streptavidin-FITC (FIG. 5B)
Method: (§1) The binding of anti-CD73 antibodies to cell surface CD73 were tested by incubating the MDA-MB-231 cells with the serially diluted biotin-labeled anti-CD73 antibodies in FACS buffer (PBS with 2% FBS) at 4° C. for 30 minutes. The cells were washed with FACS buffer and the binding was detected with streptavidin-FITC at 4° C. for 30 minutes. Flow cytometric analyses were performed using the Cytomics FC500 (Beckman Coulter Inc.).
(§2) The variable sequences of N1, N2 and N4 were cloned into human wild-type or C219S mutant IgG2 Fc backbone. Different IgG isotypes of N1 (FIG. 5A), N2 (FIG. 5B), N4 (FIG. 5C) were tested the binding to CD73-expressing human MDA-MB-231 cells by flow cytometry. Anti-CD73 ref-1 antibody and HLX01 (anti-CD20) were used as the positive and negative control respectively.

[2] = molecular target: T1, human CD73 on CD73-expressing human …; assay: flow cytometry on MDA-MB-231 cells, biotin-labeled antibody, streptavidin-FITC (FIG. 5C)
Method: as §1, §2

Binder	binding result [1]	binding result [2]
N2-tmtIgG1 (antibody, Heavy chain assembled from the VH entry and the constant region entry named tmtIgG1; also called lead N2; N2 clone, tmtIgG1 isotype) heavy: QVQLQQWGAGLLKPSETLSLTCAVYGGSFSGYYWSWIRQPPGKGLEWIGEINHSGSTNYNPSLKSRVTISVDTSKNQFSLKLSSVTAADTAVYYCARGRYDFWSGYYAYFDYWGQGTLVTVSSASTKGPSVFPLAPSSSTSGGTAALGCLVKDYFPEPVTVSWNSGALTSGVHTFPAVLQSSGLYSLSSVVTVPSSSLGTQTYICNVNHKPSNTKVDKRVEPKSCDKTHTCPPCPAPEFEGGPSVFLFPPKPKDTLMISRTPEVTCVVVDVSHEDPEVKFNWYVDGVEVHNAKTKPREEQYNSTYRVVSVLTVLHQDWLNGKEYKCKVSNKALPASIEKTISKAKGQPREPQVYTLPPSREEMTKNQVSLTCLVKGFYPSDIAVEWESNGQPENNYKTTPPVLDSDGSFFLYSKLTVDKSRWQQGNVFSCSVMHEALHNHYTQKSLSLSPGK light: LNFMLTQPHSVSESPGKTVTISCTCSGGRIANNYVQWYQQRPGTSPTTVIYEDNLRPSGVPDRFSGSIDRASNSASLTISDLRTEDEAHYYCQSYDSNDGVAFGGGTKLTVLGQPKAAPSVTLFPPSSEELQANKATLVCLISDFYPGAVTVAWKADSSPVKAGVETTTPSKQSNNKYAASSYLSLTPEQWKSHRSYSCQVTHGGSTVEKTVALTECS	binds	–
N2-wtIgG2 (antibody, also called N2 clone, wtIgG2 isotype) heavy: QVQLQQWGAGLLKPSETLSLTCAVYGGSFSGYYWSWIRQPPGKGLEWIGEINHSGSTNYNPSLKSRVTISVDTSKNQFSLKLSSVTAADTAVYYCARGRYDFWSGYYAYFDYWGQGTLVTVSSASTKGPSVFPLAPCSRSTSESTAALGCLVKDYFPEPVTVSWNSGALTSGVHTFPAVLQSSGLYSLSSVVTVPSSNFGTQTYTCNVDHKPSNTKVDKTVERKCCVECPPCPAPPVAGPSVFLFPPKPKDTLMISRTPEVTCVVVDVSHEDPEVQFNWYVDGVEVHNAKTKPREEQFNSTFRVVSVLTVVHQDWLNGKEYKCKVSNKGLPAPIEKTISKTKGQPREPQVYTLPPSREEMTKNQVSLTCLVKGFYPSDIAVEWESNGQPENNYKTTPPMLDSDGSFFLYSKLTVDKSRWQQGNVFSCSVMHEALHNHYTQKSLSLSPGK light: LNFMLTQPHSVSESPGKTVTISCTCSGGRIANNYVQWYQQRPGTSPTTVIYEDNLRPSGVPDRFSGSIDRASNSASLTISDLRTEDEAHYYCQSYDSNDGVAFGGGTKLTVLGQPKAAPSVTLFPPSSEELQANKATLVCLISDFYPGAVTVAWKADSSPVKAGVETTTPSKQSNNKYAASSYLSLTPEQWKSHRSYSCQVTHGGSTVEKTVALTECS	binds	–
N2-mtIgG2 (antibody, also called N2 clone, mtIgG2 isotype; C219S mutant IgG2) heavy: QVQLQQWGAGLLKPSETLSLTCAVYGGSFSGYYWSWIRQPPGKGLEWIGEINHSGSTNYNPSLKSRVTISVDTSKNQFSLKLSSVTAADTAVYYCARGRYDFWSGYYAYFDYWGQGTLVTVSSASTKGPSVFPLAPCSRSTSESTAALGCLVKDYFPEPVTVSWNSGALTSGVHTFPAVLQSSGLYSLSSVVTVPSSNFGTQTYTCNVDHKPSNTKVDKTVERKSCVECPPCPAPPVAGPSVFLFPPKPKDTLMISRTPEVTCVVVDVSHEDPEVQFNWYVDGVEVHNAKTKPREEQFNSTFRVVSVLTVVHQDWLNGKEYKCKVSNKGLPAPIEKTISKTKGQPREPQVYTLPPSREEMTKNQVSLTCLVKGFYPSDIAVEWESNGQPENNYKTTPPMLDSDGSFFLYSKLTVDKSRWQQGNVFSCSVMHEALHNHYTQKSLSLSPGK light: LNFMLTQPHSVSESPGKTVTISCTCSGGRIANNYVQWYQQRPGTSPTTVIYEDNLRPSGVPDRFSGSIDRASNSASLTISDLRTEDEAHYYCQSYDSNDGVAFGGGTKLTVLGQPKAAPSVTLFPPSSEELQANKATLVCLISDFYPGAVTVAWKADSSPVKAGVETTTPSKQSNNKYAASSYLSLTPEQWKSHRSYSCQVTHGGSTVEKTVALTECS	binds	–
N4-tmtIgG1 (antibody, Heavy chain assembled from the VH entry and the constant region entry named tmtIgG1; also called lead N4; N4 clone, tmtIgG1 isotype) heavy: not shown light: QAVLTQPSSVSGAPGQRVTISCTGTSSNIGAGYDIHWYQQLPGTAPKLLMYRFTRRPSGVPDRFSGSKSGTSASLTITGLQVEDEADYYCQSYDSGLRGWVFGGGTKLAVLGQPKAAPSVTLFPPSSEELQANKATLVCLISDFYPGAVTVAWKADSSPVKAGVETTTPSKQSNSKYAASSYLSLTPEQWKSHRSYSCQVTHEGSTVEKTVALTECS	–	binds
N4 with wtIgG2 isotype (antibody, also called N4-wtIgG2; N4 clone, wtIgG2 isotype) heavy: QVQLVQSGAEVKKSGSSVKVSCKASGGTFSSYAISWVRQAPGQGLEWMGGIIPIFGTANYAQKFQGRVTITADESTSIAYMELSSLRSEDTAVYYCASDGAVAAYDAFDIWGQGTMVTVSSASTKGPSVFPLAPCSRSTSESTAALGCLVKDYFPEPVTVSWNSGALTSGVHTFPAVLQSSGLYSLSSVVTVPSSNFGTQTYTCNVDHKPSNTKVDKTVERKCCVECPPCPAPPVAGPSVFLFPPKPKDTLMISRTPEVTCVVVDVSHEDPEVQFNWYVDGVEVHNAKTKPREEQFNSTFRVVSVLTVVHQDWLNGKEYKCKVSNKGLPAPIEKTISKTKGQPREPQVYTLPPSREEMTKNQVSLTCLVKGFYPSDIAVEWESNGQPENNYKTTPPMLDSDGSFFLYSKLTVDKSRWQQGNVFSCSVMHEALHNHYTQKSLSLSPGK light: QAVLTQPSSVSGAPGQRVTISCTGTSSNIGAGYDIHWYQQLPGTAPKLLMYRFTRRPSGVPDRFSGSKSGTSASLTITGLQVEDEADYYCQSYDSGLRGWVFGGGTKLAVLGQPKAAPSVTLFPPSSEELQANKATLVCLISDFYPGAVTVAWKADSSPVKAGVETTTPSKQSNSKYAASSYLSLTPEQWKSHRSYSCQVTHEGSTVEKTVALTECS	–	binds
N4 with mtIgG2 isotype (antibody, also called N4-mtIgG2; N4 clone, mtIgG2 isotype) heavy: QVQLVQSGAEVKKSGSSVKVSCKASGGTFSSYAISWVRQAPGQGLEWMGGIIPIFGTANYAQKFQGRVTITADESTSIAYMELSSLRSEDTAVYYCASDGAVAAYDAFDIWGQGTMVTVSSASTKGPSVFPLAPCSRSTSESTAALGCLVKDYFPEPVTVSWNSGALTSGVHTFPAVLQSSGLYSLSSVVTVPSSNFGTQTYTCNVDHKPSNTKVDKTVERKSCVECPPCPAPPVAGPSVFLFPPKPKDTLMISRTPEVTCVVVDVSHEDPEVQFNWYVDGVEVHNAKTKPREEQFNSTFRVVSVLTVVHQDWLNGKEYKCKVSNKGLPAPIEKTISKTKGQPREPQVYTLPPSREEMTKNQVSLTCLVKGFYPSDIAVEWESNGQPENNYKTTPPMLDSDGSFFLYSKLTVDKSRWQQGNVFSCSVMHEALHNHYTQKSLSLSPGK light: QAVLTQPSSVSGAPGQRVTISCTGTSSNIGAGYDIHWYQQLPGTAPKLLMYRFTRRPSGVPDRFSGSKSGTSASLTITGLQVEDEADYYCQSYDSGLRGWVFGGGTKLAVLGQPKAAPSVTLFPPSSEELQANKATLVCLISDFYPGAVTVAWKADSSPVKAGVETTTPSKQSNSKYAASSYLSLTPEQWKSHRSYSCQVTHEGSTVEKTVALTECS	–	binds
